{"source": "paper PMC6299097", "assay_in_all_cases": "crystal structure; L1 pentamers (Cys175 to Ser, limited trypsin digestion) at ~5 mg/mL, vapour diffusion at 20 °C", "key": {"[1]": {"target": "H58-33BC chimeric L1 pentamer (Human papillomavirus type 58)"}, "[2]": {"target": "H58-33BC-52HI chimeric L1 pentamer (Human papillomavirus type 58)"}, "[3]": {"target": "HPV33 L1 pentamer (Human papillomavirus type 33)"}, "[4]": {"target": "HPV52 L1 pentamer (Human papillomavirus type 52)"}}, "data": [{"substance": "H58-33BC chimeric L1 pentamer (complex)", "values": [{"measurement": "stoichiometry N", "setting": "[1]", "value": 5}]}, {"substance": "H58-33BC-52HI chimeric L1 pentamer (complex)", "values": [{"measurement": "stoichiometry N", "setting": "[2]", "value": 5}]}, {"substance": "HPV33 L1 pentamer (complex)", "values": [{"measurement": "stoichiometry N", "setting": "[3]", "value": 5}]}, {"substance": "HPV52 L1 pentamer (complex)", "values": [{"measurement": "stoichiometry N", "setting": "[4]", "value": 5}]}]}
